We go through two substances from patent US20070092449A1.

This test concerns the target TrkB receptor (mouse neuromuscular junction) (mouse) (UniProt P15209). The test is described as follows: cell-based or functional assay.
Sequence of UniProt P15209 (P15209 32-821): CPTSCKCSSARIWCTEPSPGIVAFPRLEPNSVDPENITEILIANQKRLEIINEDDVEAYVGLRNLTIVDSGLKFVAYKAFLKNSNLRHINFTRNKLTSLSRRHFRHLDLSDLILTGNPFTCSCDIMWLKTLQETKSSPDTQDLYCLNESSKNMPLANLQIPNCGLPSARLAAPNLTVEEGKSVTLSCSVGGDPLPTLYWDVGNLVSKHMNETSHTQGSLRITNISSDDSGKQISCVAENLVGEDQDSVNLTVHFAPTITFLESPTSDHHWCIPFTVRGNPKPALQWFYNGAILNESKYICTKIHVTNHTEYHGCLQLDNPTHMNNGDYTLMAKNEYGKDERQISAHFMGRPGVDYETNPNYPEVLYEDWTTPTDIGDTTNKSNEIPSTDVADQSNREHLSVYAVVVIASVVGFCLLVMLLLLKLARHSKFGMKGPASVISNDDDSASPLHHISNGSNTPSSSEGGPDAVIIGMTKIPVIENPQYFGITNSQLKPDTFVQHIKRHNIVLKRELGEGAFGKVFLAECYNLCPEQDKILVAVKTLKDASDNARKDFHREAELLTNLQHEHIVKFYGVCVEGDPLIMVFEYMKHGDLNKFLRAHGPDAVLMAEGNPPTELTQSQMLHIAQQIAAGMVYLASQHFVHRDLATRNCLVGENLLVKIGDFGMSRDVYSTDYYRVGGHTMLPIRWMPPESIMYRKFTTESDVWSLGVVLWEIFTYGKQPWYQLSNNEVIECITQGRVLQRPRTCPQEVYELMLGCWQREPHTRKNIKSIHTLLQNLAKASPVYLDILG

Take “recombinant human BDNF (Alomone labs) (from UniProt P23560 129-247) (ligand)”: the elevation in the level of GFP-TTC concentration at the NMJ (100 ng BDNF) amounted to 1.72 fold, the elevation in the level of GFP-TTC concentration at the NMJ (250 ng BDNF) was found to be 1.15 fold and the increase of GFP-TTC signal at the NMJ after BoTx/A block was found to be 2.05 fold.
“recombinant human NT-4 (Alomone labs) (from UniProt P34130 81-210) (ligand)”: the GFP-TTC localization at the NMJ was 1.54 fold.
